# Patent publication US12178848B2, “Methods and compositions for the treatment of exocrine pancreatic insufficiency” (Board of Regents, The University of Texas System, priority 2016, dated 2024)
# B1: fibroblast growth factor 21 (protein, UniProt Q9NSA1 29-209, looked up)
# Fibroblast growth factor 21: HPIPDSSPLLQFGGQVRQRYLYTDDAQQTEAHLEIREDGTVGGAADQSPESLLQLKALKPGVIQILGVKTSRFLCQRPDGALYGSLHFDPEACSFRELLLEDGYNVYQSEAHGLPLHLPGNKSPHRDPAPRGPARFLPLPGLPPALPEPPGILAPQPPDVGSSDPLSMVGPSQGRSPSYAS
# notes: human recombinant FGF21 from Novo Nordisk, the native form of the human FGF21
# Assays:
# AR42J cells = assay: Calcium imaging with fluo4-AM; assay type: cell-based; conditions: for block of CCK-mediated calcium release: inhibitor 30 min prior and during imaging: 1 μM PD173074, 10 μM L-364,718, 10 μM U73122, 100 μM 2-APB; for block of calcium release elicited by FGF21: 1 μg/ml FGF21, inhibitor 30 min prior and during imaging: 1 μM PD173074, 10 μM L-364,718, 10 μM U73122, 100 μM 2-APB; for intracellular calcium release (ΔF/F0): 1 μg/ml FGF21 or 100 pM CCK
# Procedure: AR42J cells were pre-loaded with 1 μM of the calcium indicator fluo4-AM (Life Technologies) for 30 minutes at 37° C. Where indicated, 1 μM PD173074 (Sigma), 10 μM L-364,718 (Tocris Bioscience), 10 μM U73122 (Tocris Bioscience) or 100 μM 2-APB (Tocris Bioscience) were added during fluo4-AM preloading and to the imaging medium (DMEM without phenol red). Cells were imaged on a BD Pathway 855 bioimager with a 10× objective. Vehicle, FGF21 (1 μg/ml) and CCK (100 pM) were delivered 10 seconds after baseline fluorescence acquisition by an automated fluid delivery mechanism and imaged for a total time of 2 minutes. Calcium release was calculated using Image J as ΔF/F0, where ΔF is the raw fluorescent signal (F) from cells minus their background fluorescence (calculated from a region where no cells and fluorescent signal was expected), and F0 was the average of the first 6 frames before the compound was added. Sample size (n) corresponds to the number of cell clusters measured with each cell cluster containing 5-20 cells.
# ERK1/2 = assay: Western blot of pancreatic phospho-ERK1/2; assay type: in vivo, mouse; conditions: for ERK1/2 phosphorylation in pancreas (FIG. 4F): WT mice, 1 mg/kg FGF21 or 5 μg/kg CCK (i.p.) for 15 min; for ERK1/2 phosphorylation in pancreas (FIG. 3B): mice, 1 mg/kg FGF21 or 5 mg/kg CCK for 15 min
# Procedure: (§1) Pancreas was homogenized using Fastprep-24 lysing matrix bead tubes (MP Biomedicals) in 1×RIPA buffer (Cell Signaling Technology) supplemented with a cocktail of protease and phosphatase inhibitors (Roche). Protein lysate concentrations were measured using the DC Protein Assay (Biorad). Equal protein amounts were loaded and electrophoresed in a […] SDS-polyacrylamide gel (Biorad) and transferred to nitrocellulose membranes (Biorad). Membranes were blocked with 5% BSA in TBST for 1 hour. Probing of membranes with antibodies against FGF21, amylase and lipase (Santa Cruz); β-actin (Abcam); p-EIF2α, p-ERK1/2, and p-eIF4E-BP1 (Cell Signaling Technology) was performed overnight at 4° C. Membranes were then incubated with HRP-conjugated secondary antibodies (Cell Signaling Technology) against the primary antibody's host species for 1 hour. Membranes were developed using the Super Signal West Chemiluminescence Kit (Thermo) and signal was detected with an ImageQuant LAS4000 luminescent imager (General Electric). Quantification was done using Image J.
# [1] = tested on: pancreatic protein synthesis; assay: Pancreatic protein synthesis, 3H-phenylalanine flooding dose method; assay type: in vivo, mouse; conditions: mice, 1 mg/kg FGF21 or 5 mg/kg CCK for 2 hr
# Procedure: Pancreatic protein synthesis was measured by the flooding dose method using ^3H-phenylalanine (Sans, et al., American journal of physiology 287, G667-675, 2004).
# ad-lib fed WT mice = assay: FGF21 protein levels in pancreatic juice and plasma after CCK treatment; assay type: in vivo, mouse; conditions: 15 min CCK treatment vs basal
# Description: (§2) Fgf21-knockout (KO) mice (Potthoff, et al., Proc Natl Acad Sci USA 106, 10853-10858, 2009), Fgf21-transgenic (Tg) mice (Inagaki, et al., Cell Metab 5, 415-425, 2007), KLB-T and WT littermates were maintained on a C57Bl/6J background. β-Klotho-KO and heterozygous littermates were kept on a mixed C57BL/6J; 129/Sv background (Ding, et al., Cell Metab 16, 387-393, 2012). All mice were housed in a pathogen-free facility and fed a standard chow diet (Harlan Teklad 2916). For fasting refeeding experiments, mice were fasted overnight and then refed for 2 hours with standard chow diet. Acute pancreatitis was induced by administration of seven hourly intraperitoneal injections of 50 μg/kg cerulein (Sigma), whereas mice in the control group were injected with saline. FGF21 in plasma was measured using a mouse FGF21 ELISA kit (Biovendor). Male mice were used for all experiments.
# (§3) Mice were injected with vehicle (10 mM Na2HPO4, 2% [w/v] glycerol, pH 7.6) or 1 mg/kg human recombinant FGF21 (Novo Nordisk) subcutaneously twice per day for two consecutive days. Mice were fasted for 6 hours, and pancreatic juice was collected for 15 minutes. The final injection of vehicle or FGF21 was given 1 hour prior to pancreatic juice collection.
# PLCβ3 = assay: Western blot of pancreatic phospho-PLCβ; assay type: in vivo, mouse; conditions: WT mice, 5 μg/kg CCK (i.p.) for 15 min
# Procedure: as §1
# (§4) Activation of the CCK-A receptor leads to the phosphorylation of the b isoform of PLC, calcium release, and subsequent secretion. In contrast, FGF receptors activate the γ isoform. To explore whether FGF21 and CCK have different activation profiles for the PLC isoforms, we treated WT mice with vehicle, FGF21, or CCK for 15 min. […]
# eIF4E-BP1 = assay: Western blot of pancreatic phospho-eIF4E-BP1; assay type: in vivo, mouse; conditions: mice, 1 mg/kg FGF21 or CCK for 15 min
# Procedure: as §1
# [2] = tested on: Fgf21-transgenic (Tg) mice; assay: Cerulein-induced pancreatitis (CIP), ER stress markers; assay type: in vivo, mouse; conditions: chronic FGF21 via liver-specific transgene, supraphysiologic circulating levels; cerulein 50 μg/kg, seven hourly i.p. injections
# Description: as §2, with “experiments. […]” for “experiments.”
# Pancreas was homogenized using Fastprep-24 lysing matrix bead tubes (MP Biomedicals) in 1×RIPA buffer (Cell Signaling Technology) supplemented with a cocktail of protease and phosphatase inhibitors (Roche). Protein lysate concentrations were measured using the DC Protein Assay (Biorad). […] Membranes were developed using the Super Signal West Chemiluminescence Kit (Thermo) and signal was detected with an ImageQuant LAS4000 luminescent imager (General Electric). Quantification was done using Image J.
# secretin = assay: Blood concentration of secretin; assay type: in vivo, mouse; conditions: mice treated with FGF21
# [3] = tested on: mouse primary acinar cells; assay: Cell secretion assay, amylase secretion; assay type: cell-based; conditions: 1 μg/mL FGF21 for 30 min
# Procedure: Primary acinar cells were prepared by modification of a published protocol (Williams, et al., The American journal of physiology 235, 517-524, 1978). Briefly, mice were sacrificed by decapitation followed by dissection and washing of the pancreas in 1×PBS. Pancreas digestion medium (0.75 mg/ml collagenase type XI-S [Sigma], 0.1 mg/ml soybean trypsin inhibitor [Sigma], 1% BSA in DMEM) was injected into the pancreatic parenchyma with a 30 g syringe. Pancreas was then incubated in digestion medium for 20-40 minutes with constant mixing using serological pipets of decreasing diameters. Cells were filtered through a 100 μm strainer and washed 3 times with incubation medium (0.1 mg/ml soybean trypsin inhibitor, 1% BSA in DMEM) via centrifugation at 50×g for 3 minutes per wash. Cells were plated and allowed to recover for 2 hours in incubation medium at 37° C.
# Primary acinar and AR42J cells were treated with vehicle, FGF21 (1 μg/ml for both primary acinar cells and AR42J) or CCK (10 pM for primary acinar cells and 100 pM for AR42J cells [Phoenix Pharmaceuticals]) for 30 minutes at 37° C. Amylase levels in both the cell medium and cells were analyzed using an Amylase Assay Kit (Abcam).
# [4] = tested on: Female Swiss Webster mice; assay: ERCP-induced pancreatitis model, histological grading of pancreas; assay type: in vivo, mouse; conditions: 1 mg/kg FGF21, 4 subcutaneous injections
# Procedure: To evaluate if FGF21 confers a beneficial effect against ERCP-induced pancreatitis, a preclinical study was performed in an established rodent model of ERCP that develops pancreatitis 24 hours after ERCP. Female Swiss Webster mice were treated with either 4 subcutaneous injections of vehicle or 1 mg/kg FGF21 in the following way: 1 injection the day prior to ERCP, 2 injections the day of the ERCP procedure, and 1 injection the day following ERCP. Mice were subjected to the ERCP procedure, which consisted of a high-pressure infusion of a radiocontrast agent through the pancreatic duct.
# PLCγ1 = assay: Western blot of pancreatic phospho-PLCγ; assay type: in vivo, mouse; conditions: WT mice, 1 mg/kg FGF21 for 15 min
# Procedure: as §1, §4
# Fgf21-KO mice [5] = assay: H&E staining of pancreas, eosinophilic area fraction; assay type: in vivo, mouse; conditions: 1 mg/kg recombinant FGF21 twice per day for two consecutive days
# Procedure: as §3
# Mouse pancreas was fixed in 10% neutral buffered formalin overnight and then paraffin embedded, sectioned and hematoxylin and eosin stained. For fresh frozen histology, the pancreas was quickly dissected, snap frozen in cooled isopentane and sectioned at 14-16 μm. The sections were then fixed in 10% neutral buffered formalin for 15 min at 4° C., washed 3 times in 1×PBS and mounted with Vectashield mounting medium with DAPI (Vector Laboratories). Images were acquired with a Zeiss Axioscan Z1 slide scanner at a 20× magnification. Quantification of the eosinophilic area was performed using Image J.
# [6] = tested on: Klb^fl/fl and Klb^Cela1−/− mice; assay: Pancreatic juice collection: flow rate and amylase levels; assay type: in vivo, mouse; conditions: 1 mg/kg FGF21 for 2 consecutive days
# Procedure: as §3
# To explore whether FGF21 also acts directly on pancreatic acinar cells in vivo, we generated an inducible acinar cell-specific β-Klotho (Klb) knockdown mouse model in which Cre recombinase expression was under the control of a modified estrogen receptor and the elastase promoter. Efficient knockdown of Klb expression following tamoxifen administration was confirmed in floxed Klb mice carrying the Cre allele (Klb^Cela1−/−). There was no change in plasma FGF21 concentrations in Klb^Cela1−/− mice under fasted conditions. Similar to the Fgf21 KO mice, the Klb^Cela1−/− mice had increased zymogen granule density and pancreatic digestive enzyme concentrations. To test whether FGF21 acts directly on pancreatic acinar cells to stimulate secretion, Klb^fl/fl and Klb^Cela1−/− mice were treated with either vehicle or FGF21 and pancreatic juice collected for 15 min. […] Thus, the basis for the remaining effect of FGF21 on pancreatic juice flow rate requires further investigation.
# Fgf21-KO mice [7] = assay: Western blot of pancreatic amylase and lipase levels; assay type: in vivo, mouse; conditions: 1 mg/kg recombinant FGF21 twice per day for two consecutive days
# Procedure: as §3
# as §1, with “Membranes were then incubated with HRP-conjugated secondary antibodies (Cell Signaling Technology) against the primary antibody's host species for 1 hour.” left out
# [8] = Klb^Cela1−/− mice, juice collected for 15 min
Molecule,block of CCK-mediated calcium release (AR42J cells; 100 pM CCK),block of calcium release elicited by FGF21 (AR42J cells),ERK1/2 phosphorylation in pancreas (FIG. 4F) (ERK1/2),ERK1/2 phosphorylation in pancreas (FIG. 3B) (ERK1/2),intracellular calcium release (ΔF/F0) (AR42J cells),3H-phenylalanine incorporation into pancreatic protein (pancreatic protein synthesis) [1],phosphorylation of eIF4E-BP1 in pancreas (eIF4E-BP1),further results
CCN(CC)CCCCNc1ncc2cc(-c3cc(OC)cc(OC)c3)c(NC(=O)NC(C)(C)C)nc2n1 [PD173074],not,blocked,,,,,,
COc1ccc2c(c1)CC[C@@H]1[C@@H]2CC[C@]2(C)[C@@H](NCCCCCCN3C(=O)C=CC3=O)CC[C@@H]12 [U73122],blocked,blocked,,,,,,
"CN1C(=O)[C@@H](NC(=O)c2cc3ccccc3[nH]2)N=C(c2ccccc2)c2ccccc21 [L-364,718]",blocked,not,,,,,,
cholecystokinin [CCK],,,induced,induced,triggered intracellular calcium release,significantly increased,increased,time to peak calcium levels after treatment (AR42J cells; 100 pM CCK): ≤ 30 s; change of FGF21 in the blood (ad-lib fed WT mice): without any change; increase in the concentration of FGF21 in the pancreatic juice (ad-lib fed WT mice): 3 fold; phosphorylation of PLCβ in pancreas (PLCβ3): induced
NCCOB(c1ccccc1)c1ccccc1 [2-APB],blocked,blocked,,,,,,
B1,,,induced,induced,triggered intracellular calcium release,no significant effect,no effect,"ER stress parameters (p-eIF2α, Atf4, Chop, Bip mRNA) in response to CIP [2]: suppressed; blood concentrations of secretin (secretin): did not increase; time to peak calcium levels after treatment (AR42J cells; 1 μg/ml FGF21): 60 to 120 s; amylase (digestive enzyme) secretion from acinar cells [3]: Induce Pancreatic Digestive Enzyme Secretion; edema after ERCP, histological grading [4]: decreased; inflammation after ERCP, histological grading [4]: decreased; phosphorylation of PLCγ in pancreas (PLCγ1): induced; pancreatic eosinophilic area fraction (Fgf21-KO mice [5]): decreased the pancreatic eosinophilic area fraction in Fgf21-KO mice to wild type (WT) levels; effect on digestive enzyme secretion (amylase in pancreatic juice) in Klb^Cela1−/− mice [6, 8]: absent; effect on pancreatic juice flow rate in Klb^Cela1−/− mice [6, 8]: significantly reduced but not eliminated; digestive enzyme secretion into pancreatic juice ([6]; control mice): stimulate; pancreatic juice flow ([6]; control mice): stimulate; pancreatic digestive enzyme levels (amylase, lipase), immunoblot (Fgf21-KO mice [7]): reduction"
